Data: patent US20120316071A1 (published 2012)
Substitutions are numbered along the chain they refer to. Numbers in names are those of the source. Values belong to the binder of their own block, whether it stands above or below them.

Key:
[1] = biological target: T1, Recombinant Human DLL4 (R&D Systems Cat#1506-D4/CF) (human, UniProt Q9NR61 27-524); assay: ELISA, DLL4 coated on plate, Fab at 6.67 nM
T1 construct: Bought recombinant protein; also called delta-like protein 4; Delta-like 4

[2] = biological target: T1, Recombinant Human DLL4 (R&D Systems …); assay: ELISA, DLL4 coated on plate, Fab at 20 nM
[3] = biological target: T1, Recombinant Human DLL4 (R&D Systems …); assay: ELISA, DLL4 coated on plate, Fab at 0.74 nM
[4] = biological target: T1, Recombinant Human DLL4 (R&D Systems …); assay: ECL (Meso Scale Discovery) multispot binding assay, DLL4 immobilised, Fab at 100 nM
[5] = biological target: T1, Recombinant Human DLL4 (R&D Systems …); assay: ELISA, DLL4 coated on plate, Fab at 2.22 nM
[6] = biological target: T2, Recombinant Human DLL4 (delta-like protein 4) (human, UniProt Q9NR61 27-524); assay: ECL (MSD) multispot binding assay, Fab on immobilised recombinant human DLL4
T2 construct: also called rHuman DLL4; Delta-like 4

[7] = biological target: T3, rHuman IGF-1 sR, (IGF-1 sR), CF (R&D Systems Cat#391-GR) (human, UniProt P08069 31-932); assay: ECL multispot (MSD), 20 nM Fab;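 further: purified Fab binding to antigens on multispot plates, read by electrochemiluminescence with a TAG-labelled detection antibody, 1 h Fab incubation at 20 °C, signal expressed relative to each well's blank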
T3 construct: Bought recombinant soluble receptor; also called insulin-like growth factor-1 soluble receptor

[8] = biological target: T4, rHuman EGF R/Fc Chimera, CF (R&D Systems Cat#344-ER) (human, UniProt P00533 25-645); assay: ECL multispot (MSD), 20 nM Fab;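 further: purified Fab binding to antigens on multispot plates, read by electrochemiluminescence with a TAG-labelled detection antibody, 1 h Fab incubation at 20 °C, signal expressed relative to each well's blank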
T4 construct: Bought recombinant protein; also called epidermal growth factor receptor; Fc part of the bought chimera not given

[9] = biological target: T5, rHuman ErbB2/Fc Chimera, CF (R&D Systems Cat#1129-ER) (human, UniProt P04626 23-652); assay: ECL multispot (MSD), 20 nM Fab;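 further: purified Fab binding to antigens on multispot plates, read by electrochemiluminescence with a TAG-labelled detection antibody, 1 h Fab incubation at 20 °C, signal expressed relative to each well's blank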
T5 construct: Bought recombinant protein; also called human epidermal growth factor 2 receptor; Fc part of the bought chimera not given

[10] = biological target: T6, rHuman CD44/Fc Chimera, CF (R&D Systems Cat#3660-CD) (human, UniProt P16070 21-220); assay: ECL multispot (MSD), 20 nM Fab;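 further: purified Fab binding to antigens on multispot plates, read by electrochemiluminescence with a TAG-labelled detection antibody, 1 h Fab incubation at 20 °C, signal expressed relative to each well's blank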
T6 construct: Bought recombinant protein; Fc part of the bought chimera not given

[11] = biological target: T7, rHuman Erythropoietin R/Fc Chimera, CF (R&D Systems Cat#963-ER) (human, UniProt P19235 25-250); assay: ECL multispot (MSD), 20 nM Fab
T7 construct: Bought recombinant protein; also called EPO R; EPO R/Fc; Fc part of the bought chimera not given
T7 sequence (looked up): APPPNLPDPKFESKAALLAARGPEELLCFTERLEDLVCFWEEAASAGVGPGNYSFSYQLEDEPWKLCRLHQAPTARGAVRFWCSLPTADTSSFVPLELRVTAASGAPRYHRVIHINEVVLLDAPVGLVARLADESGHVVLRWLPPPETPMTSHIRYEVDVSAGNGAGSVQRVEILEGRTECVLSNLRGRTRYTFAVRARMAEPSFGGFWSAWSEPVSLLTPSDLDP

[12] = biological target: T8, rHuman P-Cadherin/Fc Chimera, CF (R&D Systems Cat#861-PC) (human, UniProt P22223 108-654); assay: ECL multispot (MSD), 20 nM Fab
T8 construct: Bought recombinant protein; Fc part of the bought chimera not given

B1: Fab VH5-51_IGHD5-18*01>3_IGHJ4*01 G100K/G104T (H:KT) & V3-4_IGLJ1*01 (Fab, V domains shown)
VH: EVQLVQSGAEVKKPGESLKISCKGSGYSFTSYWIGWVRQMPGKGLEWMGIIYPGDSDTRYSPSFQGQVTISADKSISTAYLQWSSLKASDTAMYYCARRKYSYTYDYFDYWGQGTLVTVSS
VL: QTVVTQEPSFSVSPGGTVTLTCGLSSGSVSTSYYPSWYQQTPGQAPRTLIYSTNTRSSGVPDRFSGSILGNKAALTITGAQADDESDYYCVLYMGSGISYVFGTGTKVTVL
notes: Fab expressed in E. coli; Plasmid A adds CH1 with His6 and Flag tags to the heavy chain; Plasmid E adds lambda CL to the light chain; also called H:KT & L:wt; KT double mutant
ELISA signal [1]: 0.042 | ELISA signal [2]: 0.018 | ELISA signal [3]: 0.019 | ECL signal [4]: 9360 | ELISA signal [5]: 0.014

B2: Fab VH5-51_IGHD5-18*01>3_IGHJ4*01 G100K/G104T (H:KT) & V3-4_IGLJ1*01 (wildtype light chain) (Fab, V domains shown)
VH: B1 VH
VL: B1 VL
notes: Fab made in E. coli; VH was cloned into Plasmid A (CH1, His6 and Flag tags) and lambda VL into Plasmid E (lambda CL); also called H:KT & L:wt; KT double mutant
ECL signal [6]: 9360

B3: Fab VH5-51_IGHD5-18*01>3_IGHJ4*01 G100K/G104T (H:KT) & V3-4_IGLJ1*01 N54A (Fab, V domains shown)
VH: B1 VH
VL: B1 VL with N54A
notes: Fab (CH1 with His6/Flag tags from Plasmid A, lambda CL from Plasmid E); also called G100K/G104T & N54A
ECL signal [6]: 12900

B7: Fab VH5-51_IGHD5-18*01>3_IGHJ4*01 G100K/G104T (H:KT) & V3-4_IGLJ1*01 S52A (Fab, V domains shown)
VH: B1 VH
VL: B1 VL with S52A
notes: Fab (CH1 with His6/Flag tags from Plasmid A, lambda CL from Plasmid E); also called G100K/G104T & S52A
ECL signal [6]: 15200

B9: Fab VH5-51_IGHD5-18*01>3_IGHJ4*01 G100K/G104T (H:KT) & V3-4_IGLJ1*01 S57A (Fab, V domains shown)
VH: B1 VH
VL: B1 VL with S57A
notes: Fab (CH1 with His6/Flag tags from Plasmid A, lambda CL from Plasmid E); also called G100K/G104T & S57A
ECL signal [6]: 12600

B10: Fab VH3-23_IGHD2-21*01>3_IGHJ6*01 H100E/S108P/Y113G (EPG) & V2-13_IGLJ2*01 (Fab, V domains shown)
VH: not shown
VL: SSELTQDPAVSVALGQTVRITCQGDSLRSYYASWYQQKPGQAPVLVIYGKNNRPSGIPDRFSGSSSGNTASLTITGAQAEDEADYYCNSRDSSGNHLVVFGGGTKLTVL
notes: Fab; CH1 (His and Flag tags) and lambda CL come from the expression vectors; also called H:EPG
ECL signal ratio (column head gives no unit) [7]: 1.7 | ECL signal ratio (column head gives no unit) [8]: 8.4 | ECL signal ratio (column head gives no unit) [9]: 11.7 | ECL signal ratio (column head gives no unit) [10]: 1.7

B11: Fab VH3-23_IGHD2-21*01>3_IGHJ6*01 H100E/S108P/Y113G (EPG) Y109W & V2-13_IGLJ2*01 (Fab, V domains shown)
VH: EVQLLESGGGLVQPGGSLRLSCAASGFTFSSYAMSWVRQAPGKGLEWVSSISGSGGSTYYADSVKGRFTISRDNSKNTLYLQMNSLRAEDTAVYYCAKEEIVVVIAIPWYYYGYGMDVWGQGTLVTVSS
VL: B10 VL
notes: Fab; NNK mutant of the EPG heavy chain; CH1 (tags) and lambda CL come from the vectors
ECL signal ratio (column head gives no unit) [11]: 169 | ECL signal ratio (column head gives no unit) [7]: 1.5 | ECL signal ratio (column head gives no unit) [8]: 11.1 | ECL signal ratio (column head gives no unit) [9]: 16.1 | ECL signal ratio (column head gives no unit) [12]: 32

Results, then the binder that gave them:

ELISA signal [1]: 0.003 | ELISA signal [2]: 0.009 | ELISA signal [3]: 0 | ELISA signal [5]: 0
B4: Fab VH5-51_IGHD5-18*01>3_IGHJ4*01 G100K/G104T S28R (H:KT S28R) & V3-4_IGLJ1*01 (Fab, V domains shown)
VH: B1 VH with S28R
VL: B1 VL
notes: Fab expressed in E. coli; Plasmid A adds CH1 with His6 and Flag tags to the heavy chain; Plasmid E adds lambda CL to the light chain; also called H:KT S28R & L:wt; G100K/G104T S28R & parent

ECL signal [6]: 12700
B5: Fab VH5-51_IGHD5-18*01>3_IGHJ4*01 G100K/G104T (H:KT) & V3-4_IGLJ1*01 T55A (Fab, V domains shown)
VH: B1 VH
VL: B1 VL with T55A
notes: Fab (CH1 with His6/Flag tags from Plasmid A, lambda CL from Plasmid E); also called G100K/G104T & T55A

ECL signal [6]: 13200
B6: Fab VH5-51_IGHD5-18*01>3_IGHJ4*01 G100K/G104T (H:KT) & V3-4_IGLJ1*01 T53A (Fab, V domains shown)
VH: B1 VH
VL: B1 VL with T53A
notes: Fab (CH1 with His6/Flag tags from Plasmid A, lambda CL from Plasmid E); also called G100K/G104T & T53A

ECL signal [6]: 12600
B8: Fab VH5-51_IGHD5-18*01>3_IGHJ4*01 G100K/G104T (H:KT) & V3-4_IGLJ1*01 S58A (Fab, V domains shown)
VH: B1 VH
VL: B1 VL with S58A
notes: Fab (CH1 with His6/Flag tags from Plasmid A, lambda CL from Plasmid E); also called G100K/G104T & S58A
